B1: NPC1-like intracellular cholesterol transporter 1 (Homo sapiens), Q9UHC9-2 (parent)
chain: MAEAGLRGWLLWALLLRLAQSEPYTTIHQPGYCAFYDECGKNPELSGSLMTLSNVSCLSNTPARKITGDHLILLQKICPRLYTGPNTQACCSAKQLVSLEASLSITKALLTRCPACSDNFVNLHCHNTCSPNQSLFINVTRVAQLGAGQLPAVVAYEAFYQHSFAEQSYDSCSRVRVPAAATLAVGTMCGVYGSALCNAQRWLNFQGDTGNGLAPLDITFHLLEPGQAVGSGIQPLNEGVARCNESQGDDVATCSCQDCAASCPAIARPQALDSTFYLGQMPGSLVLIIILCSVFAVVTILLVGFRVAPARDKSKMVDPKKGTSLSDKLSFSTHTLLGQFFQGWGTWVASWPLTILVLSVIPVVALAAGLVFTELTTDPVELWSAPNSQARSEKAFHDQHFGPFFRTNQVILTAPNRSSYRYDSLLLGPKNFSGILDLDLLLELLELQERLRHLQVWSPEAQRNISLQDICYAPLNPDNTSLYDCCINSLLQYFQNNRTLLLLTANQTLMGQTSQVDWKDHFLYCANAPLTFKDGTALALSCMADYGAPVFPFLAIGGYKGKDYSEAEALIMTFSLNNYPAGDPRLAQAKLWEEAFLEEMRAFQRRMAGMFQVTFMAERSLEDEINRTTAEDLPIFATSYIVIFLYISLALGSYSSWSRVMVDSKATLGLGGVAVVLGAVMAAMGFFSYLGIRSSLVILQVVPFLVLSVGADNIFIFVLEYQRLPRRPGEPREVHIGRALGRVAPSMLLCSLSEAICFFLGALTPMPAVRTFALTSGLAVILDFLLQMSAFVALLSLDSKRQEASRLDVCCCVKPQELPPPGQGEGLLLGFFQKAYAPFLLHWITRGVVLLLFLALFGVSLYSMCHISVGLDQELALPKDSYLLDYFLFLNRYFEVGAPVYFVTTLGYNFSSEAGMNAICSSAGCNNFSFTQKIQYATEFPEQSYLAIPASSWVDDFIDWLTPSSCCRLYISGPNKDKFCPSTVNSLNCLKNCMSITMGSVRPSVEQFHKYLPWFLNDRPNIKCPKGGLAAYSTSVNLTSDGQVLTSRFMAYHKPLKNSQDYTEALRAARELAANITADLRKVPGTDPAFEVFPYTITNVFYEQYLTILPEGLFMLSLCLVPTFAVSCLLLGLDLRSGLLNLLSIVMILVDTVGFMALWGISYNAVSLINLVSAVGMSVEFVSHITRSFAISTKPTWLERAKEATISMGSAVFAGVAMTNLPGILVLGLAKAQLIQIFFFRLNLLITLLGLLHGLVFLPVILSYVGPDVNPALALEQKRAEEAVAAVMVASCPNHPSRVSTADNIYVNHSFEGSIKGAGAISNFLPNNGRQF
B2: LIM domain and actin-binding protein 1 (Mus musculus), Q9ERG0-1 (parent)
chain: MESTPFNRRQWTSLSLRVTAKELSLVNKNKSSAIVEIFSKYQKAAEEANMERKKNNPESLPQHFRRGTLSVLKKKWENPVAGAEFHTDSLPNSSSEGGHTADYPPAEVTDKPAPGVRADREEHTQPKPRFGSRPEAVIQSRYPRSENSHDFKAQATESQKMENCLGDSRHEAEKPETSENTETSGKIEKYNVPLNRLKMMFEKGEHNQTKSLWTQSRNAGGRRLSENNCSLDDWEIGAGHLSSSAFNSEKNESKRNLELPRLSETSIKDRMAKYQAAVSKQSSPASYTNELKTSESKTHKWEQKENVPPGPEACSVHQEGSKVSTTENSLVALSVPAEDDTCNSQVKSEAQQPMHPKPLSPDARTSSLPESSPSKTAKKFQAPAKESCVECQKTVYPMERLLANQQVFHISCFRCSYCNNKLSLGTYASLHGRIYCKPHFNQLFKSKGNYDEGFGHKQHKDLWASKSDNEETLGRPAQPPNAGESPHSPGVEDAPIAKVGVLAASMEAKASSQREREDKPAETKKLRIAWPPPAELGGSGSALEEGIKVSKPKWPPEDDVCKTEAPEDVDLDLKKLRRSSSLKERSRPFTVAASFRTSSIKSPKASSPSLRKGWSESEQSEEFGGGIATMERKQTENARPSGEKENVGKSRWQGEEVPRSKDRSSFELESENFMENGANIAEDDNHVHAQQSPLEPEAPGWSGFVDTTAAKEFTTQNQKSQDVGFWEGEVVRELSVEEQIKRNRYYDEDEDEE
partner: B1 chain

Variants of: B1
Details: with Lima1, Q9ERG0-1

Row | Variant | effect of a mutation on the interaction
1 | Q1277A;K1278A;R1279A | disrupting interaction

Variants of: B2
Details: with NPC1L1, Q9UHC9-2

Row | Variant | effect of a mutation on the interaction
2 | C164A;L165A;G166A | disrupting interaction

Variants of: B2
Details: with NPC1L1, Q9UHC9-2
Remark: another data set of the same source

Row | Variant | effect of a mutation on the interaction
3 | C164A;L165A;G166A | disrupting interaction strength

— IntAct's records for PubMed 29880681
